Data as given in patent US20250269047A1 (MABWELL SHANGHAI BIOSCIENCE, published 2025).
Positions count from the first letter of the chain named.

T1: recombinant human B7-H3-his extracellular domain protein (UniProtKB-Q5ZPR3, 1 aa-461 aa) (human, UniProt Q5ZPR3 29-461)
T1 construct: range 1-461; The printed range 1-461 starts at residue 1 and so includes the signal peptide; also called Human B7-H3 ECD; recombinant human B7-H3-his protein; not shown: C-terminal his tag
T1 sequence (looked up): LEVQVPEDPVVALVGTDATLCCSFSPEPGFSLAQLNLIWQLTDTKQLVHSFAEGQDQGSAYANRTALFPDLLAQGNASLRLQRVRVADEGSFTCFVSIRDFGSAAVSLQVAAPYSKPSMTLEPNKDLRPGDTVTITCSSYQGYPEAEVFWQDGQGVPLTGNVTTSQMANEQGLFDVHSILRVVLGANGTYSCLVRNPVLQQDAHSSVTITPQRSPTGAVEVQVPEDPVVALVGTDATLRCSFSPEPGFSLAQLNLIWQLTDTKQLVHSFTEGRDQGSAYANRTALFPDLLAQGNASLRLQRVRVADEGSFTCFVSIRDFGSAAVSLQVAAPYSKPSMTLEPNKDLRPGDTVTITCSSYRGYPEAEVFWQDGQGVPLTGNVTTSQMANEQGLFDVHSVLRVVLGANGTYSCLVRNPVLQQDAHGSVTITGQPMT

B1: hz9B11-1 (antibody, human IgG1, kappa)
heavy: not shown
light: EIVLTQSPGTLSLSPGERATLSCRASQSINNNLHWYQQKPGQAPRLLIYYASQSISGIPDRFSGSGSGTDFTLTISRLEPEDFAVYYCQQSHSWPYTFGQGTKLEIKRTVAAPSVFIFPPSDEQLKSGTASVVCLLNNFYPREAKVQWKVDNALQSGNSQESVTEQDSKDSTYSLSSTLTLSKADYEKHKVYACEVTHQGLSSPVTKSFNRGEC
notes: hz9B11_VH1 + hz9B11_VL1; human IgG1, kappa
B2: hz9B11-10 (antibody, human IgG1, kappa)
heavy: not shown
light: B1 light with Y49K, Y87F
notes: hz9B11_VH2 + hz9B11_VL5; human IgG1, kappa
B3: hz9B11-5 (antibody, human IgG1, kappa)
heavy: not shown
light: B1 light with Y49K
notes: hz9B11_VH1 + hz9B11_VL3; human IgG1, kappa
B4: hz9B11-7 (antibody, human IgG1, kappa)
heavy: not shown
light: B1 light with Y87F
notes: hz9B11_VH1 + hz9B11_VL4; human IgG1, kappa
B5: hz9B11-2 (antibody, human IgG1, kappa)
heavy: not shown
light: B1 light
notes: hz9B11_VH2 + hz9B11_VL1; human IgG1, kappa
B6: hz9B11-9 (antibody, human IgG1, kappa)
heavy: not shown
light: B1 light with Y49K, Y87F
notes: hz9B11_VH1 + hz9B11_VL5; human IgG1, kappa
B7: hz9B11-8 (antibody, human IgG1, kappa)
heavy: not shown
light: B1 light with Y87F
notes: hz9B11_VH2 + hz9B11_VL4; human IgG1, kappa
B8: hz17A3-8 (antibody, human IgG1, kappa, V domains shown)
VH: EVQLVQSGAEVKKPGASVKVSCKASGYTFTDYALHWVRQAPGQGLEWMGLINTYSSNTNYNQKFKDRVTMTRDTSISTAYMELSRLRSEDTAVYYCARGITAVVGTRYYAMDYWGQGTLVTVSS
VL: EIVLTQSPGTLSLSPGERATLSCRASQSISNNLHWYQQKPGQAPRLLIYYTSQNISGIPDRFSGSGSGTDFTLTISRLEPEDFAVYFCQQSYSWPLTFGGGTKVEIKR
notes: hz17A3_VH3 + hz17A3_VL4; human IgG1, kappa
B9: hz17A3-20 (antibody, human IgG1, kappa, V domains shown)
VH: B8 VH
VL: EIVLTQSPDFQSVTPKEKVTITCRASQSISNNLHWYQQKPDQSPKLLIKYTSQNISGVPSRFSGSGSGTDFTLTINSLEAEDAATYYCQQSYSWPLTFGGGTKVEIKR
notes: hz17A3_VH3 + hz17A3_VL8; human IgG1, kappa
B10: hz17A3-18 (antibody, human IgG1, kappa, V domains shown)
VH: B8 VH with N52S
VL: B8 VL with N31S, Y49K, N54S, F87Y
notes: hz17A3_VH4 + hz17A3_VL7; human IgG1, kappa
B11: hz17A3-4 (antibody, human IgG1, kappa, V domains shown)
VH: B8 VH with E1Q, M48I, E89D
VL: B9 VL with K49Y
notes: hz17A3_VH2 + hz17A3_VL2; human IgG1, kappa
B12: hz17A3-22 (antibody, human IgG1, kappa, V domains shown)
VH: B8 VH with N57S
VL: B9 VL
notes: hz17A3_VH5 + hz17A3_VL8; human IgG1, kappa
B13: hz17A3-15 (antibody, human IgG1, kappa, V domains shown)
VH: B8 VH with N52S
VL: B8 VL with Y49K, N54S, F87Y
notes: hz17A3_VH4 + hz17A3_VL6; human IgG1, kappa
B14: hz17A3-13 (antibody, human IgG1, kappa, V domains shown)
VH: B8 VH with N57S
VL: B8 VL with N31S, Y49K, F87Y
notes: hz17A3_VH5 + hz17A3_VL5; human IgG1, kappa
B15: hz17A3-3 (antibody, human IgG1, kappa, V domains shown)
VH: B8 VH with E1Q, E89D
VL: B9 VL with K49Y
notes: hz17A3_VH1 + hz17A3_VL2; human IgG1, kappa
B16: hz17A3-19 (antibody, human IgG1, kappa, V domains shown)
VH: B8 VH with N57S
VL: B8 VL with N31S, Y49K, N54S, F87Y
notes: hz17A3_VH5 + hz17A3_VL7; human IgG1, kappa
B17: hz17A3-24 (antibody, human IgG1, kappa, V domains shown)
VH: B8 VH with N52S
VL: B9 VL with K49Y, Y87F
notes: hz17A3_VH4 + hz17A3_VL9; human IgG1, kappa
B18: hz17A3-11 (antibody, human IgG1, kappa, V domains shown)
VH: B8 VH
VL: B8 VL with N31S, Y49K, F87Y
notes: hz17A3_VH3 + hz17A3_VL5; human IgG1, kappa
B19: hz17A3-21 (antibody, human IgG1, kappa, V domains shown)
VH: B8 VH with N52S
VL: B9 VL
notes: hz17A3_VH4 + hz17A3_VL8; human IgG1, kappa
B20: hz17A3-12 (antibody, human IgG1, kappa, V domains shown)
VH: B8 VH with N52S
VL: B8 VL with N31S, Y49K, F87Y
notes: hz17A3_VH4 + hz17A3_VL5; human IgG1, kappa
B21: hz17A3-9 (antibody, human IgG1, kappa, V domains shown)
VH: B8 VH with N52S
VL: B8 VL
notes: hz17A3_VH4 + hz17A3_VL4; human IgG1, kappa
B22: hz17A3-23 (antibody, human IgG1, kappa, V domains shown)
VH: B8 VH
VL: B9 VL with K49Y, Y87F
notes: hz17A3_VH3 + hz17A3_VL9; human IgG1, kappa
B23: hz17A3-10 (antibody, human IgG1, kappa, V domains shown)
VH: B8 VH with N57S
VL: B8 VL
notes: hz17A3_VH5 + hz17A3_VL4; human IgG1, kappa
B24: hz17A3-16 (antibody, human IgG1, kappa, V domains shown)
VH: B8 VH with N57S
VL: B8 VL with Y49K, N54S, F87Y
notes: hz17A3_VH5 + hz17A3_VL6; human IgG1, kappa
B25: hz17A3-25 (antibody, human IgG1, kappa, V domains shown)
VH: B8 VH with N57S
VL: B9 VL with K49Y, Y87F
notes: hz17A3_VH5 + hz17A3_VL9; human IgG1, kappa
B26: hz17A3-17 (antibody, human IgG1, kappa, V domains shown)
VH: B8 VH
VL: B8 VL with N31S, Y49K, N54S, F87Y
notes: hz17A3_VH3 + hz17A3_VL7; human IgG1, kappa
B27: hz9B11-3 (antibody, human IgG1, kappa)
heavy: not shown
light: EIVLTQSPDFQSVTPKEKVTITCRASQSINNNLHWYQQKPDQSPKLLIKYASQSISGVPSRFSGSGSGTDFTLTINSLEAEDAATYYCQQSHSWPYTFGQGTKLEIKRTVAAPSVFIFPPSDEQLKSGTASVVCLLNNFYPREAKVQWKVDNALQSGNSQESVTEQDSKDSTYSLSSTLTLSKADYEKHKVYACEVTHQGLSSPVTKSFNRGEC
notes: hz9B11_VH1 + hz9B11_VL2; human IgG1, kappa
B28: hz9B11-4 (antibody, human IgG1, kappa)
heavy: not shown
light: B27 light
notes: hz9B11_VH2 + hz9B11_VL2; human IgG1, kappa

molecular target: T1, recombinant human B7-H3-his …; test: BLI (Octet QKe), antibody on AHC biosensor, B7-H3-his 60 nM in solution
Method: According to the mutation designs, site-directed mutagenesis was performed in the plasmids expressing the humanized light chains and heavy chains respectively using StarMut gene Site-directed Mutagenesis Kit (Cat.: T111-01, GenStar). The mutated plasmids were transformed into E. coli cells for expansion, and plasmids expressing the humanized and mutated light and heavy chains based on the antibodies 9B11, 10B4, and 17A3 were obtained. […] 5-6 days after cell transfection, culture supernatants were purified through ProA affinity chromatography column to obtain different humanized antibodies. Affinities of the antibodies were determined by an assay including capturing Fc fragments of the antibodies with anti-human IgG Fc capture (AHC) biosensors using Octet QKe system instrument from Fortebio. For the assay, each of the humanized antibodies and the chimeric antibodies based on the antibodies 9B11, 10B4, and 17A3 was diluted to 4 μg/ml in PBS, and was allowed to flow through the surface of an AHC biosensor (Cat.: 18-0015, PALL) for 300 s. Recombinant human B7-H3-his protein (Accession No.: UniProtKB-Q5ZPR3, 1 aa-461 aa) was used as a mobile phase, and its concentration was 60 nM. The association time was 100 s and the dissociation time was 300 s. When the assay was finished, data from which the response values of blank control had been deducted were fitted to a 1:1 Langmuir binding model using software, and then kinetic constants for antigen-antibody binding were calculated. The light and heavy chain combinations and the affinity constant KD values of the humanized and the mutant antibodies based on the antibodies 9B11, 10B4, and 17A3 are shown in Tables 6-8 respectively.

| Kd | Binder |
| --- | --- |
| 4.52 nM | B1 |
| 0.139 nM | B2 |
| 0.121 nM | B3 |
| 3.07 nM | B4 |
| 6.28 nM | B5 |
| 0.107 nM | B6 |
| 4.51 nM | B7 |
| 0.462 nM | B8 |
| 0.289 nM | B9 |
| 0.172 nM | B10 |
| 0.899 nM | B11 |
| 0.479 nM | B12 |
| 0.371 nM | B13 |
| 0.699 nM | B14 |
| 0.598 nM | B15 |
| 0.411 nM | B16 |
| 1.91 nM | B17 |
| 0.299 nM | B18 |
| 0.433 nM | B19 |
| 0.573 nM | B20 |
| 0.431 nM | B21 |
| 2.58 nM | B22 |
| 0.401 nM | B23 |
| 0.299 nM | B24 |
| 4.88 nM | B25 |
| 0.0328 nM | B26 |
| 0.118 nM | B27 |
| 0.141 nM | B28 |
